Assay results from a protein production outcome set (Wang et al. 2014).

Assay: label from the status in PepcDB records

Sequence | protein production
MKVILVNGSPHKDGCTFTALEEVAKALNEEGIDTEFFHLGTKPLNGCIACGHCRKHQRCVFPDSVNEFLDLAQEADGFIFGSPVHYAAAGGAITSFLDRVFYTDSGSGKQAFYLKPAAAVVSARRAGTTASLDQLNRYFTIKEMPIISSKYWNMVHGNTPEEVRKDEEGLQIMRTLGRNMAWFLKCKEAGIRAGIPFPSQEEGLRTNFIRLEHHHHHH | not failed
MIKSSSKIGLAFFVRPQFDVDLAKNFFNKVQDSLKEAGIATQVFELPVSTDAEALSLAESVNSHQDLHGLIVVQGTFCDASLILNLASNINLPIMIWATKEQPTGGRLSLNSFCGLNLGAHTLVNAGIKFKGVYGSPGSPAVIKKVTSFARAAGAVKWLKGKRIGLFGHRPSGYYPSNFNEILLRKQFGITVEYLSLSEVFSLAQKMEIKDIQPFINTLVGVEGLEMVSTSKSVQAYLALKELIAQKALDAVAVECWPEFMAGFGGAVCYALSRLNDEGIVAACEADVNGAVTMLLGSYLSSQANFIADLVGAEEEQNQLIFWHCGNGPLSLAAPGTNPVAGVHPNRKTPLAMYFPLKGGPVTVSRLSSDHNGNLRLFLGSGTGIETDLLYSGNSLPIQISGSVEETLDTILCEGIEHHYIVTYGDLTSEFREIAELLGLRMITFLEHHHHHH | failed
MTRAINDPGNEDPGSLLETDADALLGGAAAQAPEERCRLAAQACIRACERYLALCTESSREQRQHAGDCADLCRLAALLLERRSPWAPAACELAARYALACAERCDGDEPLERECAGACRRFVEACRPLLPALEHHHHHH | not failed
MGHHHHHHSHMRCQESMSAVLTAEQALKLVGEMFVYHMPFNRALGLELERYEKAFAQLAFNNQPMMVGNWAQSILHGGVIASALDVAAGLVCVGSTLTRHETISEDELRQRLSRMGTIDLRVDYLRPGRGNRFTATSSLLRAGNKVAVARVELHNEDQLYIASATATYMVG | failed
MRDTGTSESNRSGDVVLGDDWVAPHSTVSKELRVKRARRSLFSLRGSPLTRKIITFNLIALIILVAGILYLNDARNGLVVQRAGALVGETQLVADVFEAQITGSAPVNLATGDGVDVDATLEDLSLRRGVEVFVFDTARNMVGQTKGTHVNPRLQALFEDKTGSTIITDALSGLWRAVSSIFANAPKSSAPALEQQIASLLPEALAGETRVETVLNTAGGTVIAAATPILQAGTPIGAVAMASPAGEIDALARRDRERVLQMFVVALLVSVGLSLVLASTIANPLADLAEAAELGRDRNSRRMNPGRIRIPDLSARPDEIGRLSRALRGMVSALYNRIEGNEQFAADVAHEIKNPLASLQSAVGTLRMVRREDQRDKLLSVIEHDVRRLDRLVSDISNASRLDAELVKEEEQSFNLLTMLDNLNQYLGEDARSKGIDYITDMPPDPIMIQGLEARLAQVFVNLITNAISFCEDGDAIRVWTRRRANRVLIVVEDTGPGIPDEALAKIFKRFYSQRPEEHFGNNSGLGLAISKQIVEAHGGVIWAENIRPTEADVTSDPLGARFVVGLPI | not failed
MVRLAEERDFPGFLGLAGQVEHWFGPMVEDAGFHEAVREHIRRGAALVAVAPDPDTDAGPGAGTGTELLGGLLFGTDTDADAPVHHVHWLVVSRQARAGGVGRALMRDAMRRWVREPAGVEVVTFGADHPGATESGARAFYERLGFTPAEVVAPGPEGGSRQLFRRGAQVRPTRGEHVTTYTGGPA | failed
MSQDLIRAAFEKRLSDWAKARTPALPVAWQNTKFTPPAAGVYLRAYVMPAATISRDAAGDHRQYRGVFQVNVVMPIGDGSRSAEQVAAELDALFPVNLVMQSGGLAVRVRTPISNGQPTTGDADHTVPISLGYDVQFYPE | not failed
MLELRPARAADVPAIAAMHAASWRASYRGILPDDYLDRYAADERLSLWRRRFETASPPWVRLACWDGEPVGFVCLLPEEAPELGVYLDNLHVLPGQQGRGIGRALMAAAAAEAERIAPGRPLYLWVYERNADACAAYDKMGGVVMARREVDTAAGTRAIALRYSWP | failed
MRLEKFIHLLGERGFDGALISPGTNLYYLTGLRLHEVGERLAILAVSAEGDYRFLAPSLYENVVNNFPATFWHDGENPYAKLREILEELGISKGRILIEDTMRADWLIGIMKLGKFTFQPLSSLIKELRMIKDKEEVKMMEHASRIADKVFEEILTWDLIGMKERELALKIELLIRELSDGIAFEPIVASGENAANPHHEPGERKIRKGDIIILDYGARWKGYCSDITRTIGLGELDERLVKIYEVVKDAQESAFKAVREGIKAKDVDSRAREVISKAGYGEYFIHRTGHGLGLDVHEEPYIGPDGEVILKNGMTFTIEPGIYVPGLGGVRIEDDIVVDEGKGRRLTKAERELIIL | not failed
METIKIGVVGLGTVGTGVVKMLQAHQEKISEITGRKLELACVVVHNLKKHEQVDLGDVQMTDQIATLLDDPSIQIMVEVMGSIHPAKEYITQALQAGKHVVTANKDLIAQYGRELVQIARENHRDLFYEASVAGGIPILRTIDNSFAADRIQRVMGIVNGTTNYIMTQMLTKHWSYDQALSSAQDLGFAESDPTNDVEGLDAAFKMIILTQFAFGMSLSLDHVQVQGITKISPEDIAEAHQLGYTIKLLGIAEEIDDRIAVSVGPVLVSDQHPLATVQNENNAVMVTGTAVGNTMFYGPGAGELPTANSVLSDITTVAKNIALNTTGNTFNSYRQETVLATPEDVVYPHFIALKMRDVPGMMMKLTAIMTRAEVSFSRIIQNQLGDGNARVVIITHAMNDQQLADITREIGEQENMQLLASYKVLKNA | failed
MNRLFGNGRCLDVAIDHGVCNEPSFLDGLENMPAVVKALVDARPDAIQMNYGQADLLQDLPGKDKPALVMRIDMGNPYNRIRHRDMWAVLQNEAEPLVGALQMDAACVVVNLFMLPDEPDLFRQCVQNISRVRADCEKYGMPLMIEPLVMQPVTERGGYMVDGDADKIVTLTRLAREMGADIVKADPTTNAEDFHRVVEAARCPVLVRGGGKEDLAAVFAKSTALMRQGAMGMVYGRNIYQHANPSAVVRGLMAIIHQDASGEEAVAIYRQG | failed
MSLSLLLQQHLSQPWRFLDHTSFGPTFQALQSFAYDDTLCTSIGKSQSPPTLRAWVHHNTVVLGIQDSRLPQIKAGIEALKGFQHDVIVRNSGGLAVVLDSGILNLSLVLKEEKGFSIDDGYELMYELICSMFQDHREQIEAREIVGSYCPGSYDLSIDGKKFAGISQRRIRGGVAVQIYLCVSGSGAERAKMIRTFYDKAVAGQPTKFVYPRIKPETMASLSELLGQPHNVSDVLLKALMTLQQHGASLLTESLSADEWLLYEQHFARISERNEKLLAEEGHHHHHH | not failed
VACKPKEKPSSATSLTDDALMDTVQRRTFNYFWDAAEPNSGLARERYHMDGEYPAGGPEIVTSGGSGFGIMAILAGIDRGYVSREEGLRRMEKIVGFLEKADRFKGAYPHWWNGETGHVQPFGQKDNGGDLVETAFLMQGLLAVHQYYAEGSAEEKKLAGRIDKLWREVDWNWYRHGGQNVLYWHWSPEYGWEMNFPVHGYNECLIMYILAAASPTHGVPAAVYHEGWAQNGAIVSPHKVEGIELHLRYQGGEAGPLFWAQYSFLGLDPVGLKDEYCPSYFNEMRNLTLVNREYCIRNPKHYKGYGPDCWGLTASYSVDGYAAHGPLERDDRGVISPTAALSSIVYTPDQSLQVMHHLYEMGDKVFGPYGFYDAFSETADWYPKRYLAIDQGPIAVMIENYRTGLLWKLFMSHPDVQNGLKKLGFNVKK | not failed
MSKIKWSNLWKGFAMGTTDLVPGVSGGTIALLLGIYDDFIRSISGLFSKRFWESLKFLLPIGIGMVVAIGLLSKLINYLLSTHTVPTMFFFVGLIGGIIPYLLKTSRFKHTFTTPHYLLLVVGIIVIVMMTVMNSGDKHAGETLSLSTGLILKYFIAGACASSAMLLPGISGSFMLLVFGVYGTIMYAISEFVSLNFAALPILITVGCGVLFGFLCSSKLIQYLLSYYTYLTYALIIGFVIGSLYAVFPGLPSTIMIWIVSIVTLLLGFVISYRLGRLTAD | failed
MGISNWQPTMRAACWMSGALVSLLAMAVATRELSAHVSVFQILFFRSACGLLIIVPLVWRAGWRKVATARPGLHVLRNATHFLAQYGWVYGIAFIPMAEVFAIEFTVPVWTALLAAVLLGERLTAARLLAVALGLAGVFVIVRPGSGMIHPAALAVLLGAVAFALAYIMTKMLARTETPLCILFYMTLVQLPLGLAPALANWSSPPPHVWPWILVVGTMGLATHYCLARAMALADATVVVPLDFLRLPLIAVVGAVFYGEAIEPLLFLGAGMILAGNLYSILAERRRPAMPRAARDGSH | failed
MKKPNHSGSGQIRIIGGQWRGRKLPVPDSPGLRPTTDRVRETLFNWLAPVIVDAQCLDCFAGSGALGLEALSRYAAGATLIEMDRAVSQQLIKNLATLKAGNARVVNSNAMSFLAQKGTPHNIVFVDPPFRRGLLEETINLLEDNGWLADEALIYVESEVENGLPTVPANWSLHREKVAGQVAYRLYQREAQGESDAD | not failed
MRFRFGVVVPPAVAGARPELLVVGSRPELGRWEPRGAVRLRPAGTAAGDGALALQEPGLWLGEVELAAEEAAQDGAEPGRVDTFWYKFLKREPGGELSWEGNGPHHDRCCTYNENNLVDGVYCLPIGHWIEATGHTNEMKHTTDFYFNIAGHQAMHYSRILPNIWLGSCPRQVEHVTIKLKHELGITAVMNFQTEWDIVQNSSGCNRYPEPMTPDTMIKLYREEGLAYIWMPTPDMSTEGRVQMLPQAVCLLHALLEKGHIVYVHCNAGVGRSTAAVCGWLQYVMGWNLRKVQYFLMAKRPAVYIDEEALARAQEDFFQKFGKVRSSVCSL | failed
MSLEERVKEIIAEQLGVEKEKITPEAKFVEDLGADSLDVVELIMAFEEEFGIEIPDEDAEKIQTVGDVINYLKEKVGG | not failed
MCTEFWNSFSNLFTGGRSTNRKIILVLLIMVLSSGVCSADNYVGGIPLTSAHSGTVSGGVYCDSYYGMGDQEAKASNTIEKTFTVPDNANVEWAMLLTNVYCGHMQNNYQGKAKVDFNGKNLGTETLNVPYTYSYNGGNGHVQVNDHVNRVTSDYMMYYDVTGLVKAGKNTAVVKTDPLDSSFDGRIRLVTLVVAYNDGSKKTIWYQVNRGHDADSYYSDDEMNENYIGSTAFQAALPEGSSLTDSKLTLVYQASSDGAYAFNGNALSSGTPQGTFSGSNTWDVKDSLKSSGTNTLTYDRTASFYKSVLGILTAEYTTSSSGDSTDDTPADNTTDNGSAGDTTDDISSDNTTNDTSSDNTTSDVPAGNTTNDTPADNTTDAKFSADLGVQAIKVSHNSAAKAWKNLVNTVNVTVINNGPEKAGSFALELYSEGSLLESKPINGLANGATEAVEFVWKPEDAKNYTLRAVVVPGSTINDANATNNELSKTQEVMHNGYIGDKPLETYLHGTVKGNIIYDYGNSSYVKVSSGDVYTAGHSLSLPEGAIVKYARLYNFWTWSATGSSGVIPSMSLDFAGSSLTPEAEYADQKGWGQYDYPTGTWAYNVTGLVSGSGNYITTVKNTNSDAENSFCIDGIALLVVYEDASGKETQYWINEGCDAVSTMSSSGGLTPDEATVKIAFAGDSIDLGNVDNARLWTTVQSGGHEGIALKFNEMSISGVYDSTPSSNLDIDEARDVTSYLLSQNNEAQIIAPSVTDNSGDYMIPSSAILAVSYKSETTDDTNITDDTNVTDDTNVTDGTNVTDDTNVTDGTNVTNDTNVTNDTNVTNDTNVTNDTNVTNDTNVTNDTNVTDDTNVTDGTNVTDGTNVTIDTNVTIDTNVTIDTNVTDNTNVTDDTNMKDDTNVTLKVNIIPVISLTVSPDSLDFGTVSPGTPSESLPLALKNNGGISIKVTAEVHDQENGPFATGLLLDQNIWSNYSKVLAAESAETSQAQLDLPLNYSSTGQFQGTLSLWAEAA | failed
MTRPAHPISRYPVPELAALPDDIRQRILEVQDKAGFVPNVFLTLAHRPDEFRAFFAYHDALMLKDGGLTKGEREMIVVATSAANQCLYCVVAHGAILRIYEKKPLVADQVAVNYLKADIPPRQRAMLDFALKVCKASHEVNEADFEALREHGFTDEDAWDIAAITAFFGLSNRMANTIGMRPNDEFFLMGRVPKSK | not failed
MDFHIRKATNSDAEAIQHVATTSWHHTYQDLIPSDVQDDFLKRFYNVETLHNRISATPFAVLEQADKVIGFANFIELEKGKSELAAFYLLPEVTQRGLGTELLEVGMTLFHVPLPMFVNVEKGNETAIHFYKAKGFVQVEEFTEDFYGYPLETIRFNLNH | not failed
